Data as given in patent publication US20150322128A1 (Sanofi, published 2015).
Numbered stars: 1 amine (or outer) side, 2 acyl side, 3 side chain; on linkers, the order of the positions; unused ones are H or OH. Square brackets hold non-standard residues; d marks the D form. Side chains are listed from the residue outwards. Ends that are not written are not given here. * marks the point of attachment. γGlu = O=C(O)[C@H](CCC(=O)[*:2])N[*:1]; Stearoyl = CCCCCCCCCCCCCCCCCC(=O)*; Palmitoyl = CCCCCCCCCCCCCCCC(=O)*; Aib = CC(C)(N)C(=O)O

T1: human GIP receptor (human, UniProt P48546 22-466)
T1 sequence (looked up): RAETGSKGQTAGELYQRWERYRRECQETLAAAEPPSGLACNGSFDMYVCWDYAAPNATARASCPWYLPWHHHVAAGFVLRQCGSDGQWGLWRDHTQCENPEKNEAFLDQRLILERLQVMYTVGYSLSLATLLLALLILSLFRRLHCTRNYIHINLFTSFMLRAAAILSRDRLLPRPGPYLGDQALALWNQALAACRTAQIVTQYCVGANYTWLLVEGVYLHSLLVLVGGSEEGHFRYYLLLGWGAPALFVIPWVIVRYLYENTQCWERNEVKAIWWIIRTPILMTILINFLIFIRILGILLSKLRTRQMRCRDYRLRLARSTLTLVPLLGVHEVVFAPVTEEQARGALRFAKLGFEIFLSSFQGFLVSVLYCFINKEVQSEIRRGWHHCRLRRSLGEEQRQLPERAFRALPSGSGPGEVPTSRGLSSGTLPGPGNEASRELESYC

B1: SEQ ID NO: 12 (peptide)
peptide: HXQGTFTSDLSKQKDEEAARLFIEWLXAXGPSSGAPPPS
modifications: D-Ser at 2; Lys 14 side chain K(γE-γE-x53) = (S)-4-Carboxy-4-((S)-4-carboxy-4-hexadecanoylamino-butyrylamino)-butyryl-; Aib at 27; D-Ala at 29; C-terminal amide
B2: SEQ ID NO: 21 (peptide)
peptide: HXQGTFTSDLSKQKDEEAARLFIEWLXAGGPSSGAPPPS
modifications: D-Ser at 2; Lys 14 side chain K(AEEAc-AEEAc- E-x70) = (2-{2-[2-(2-{2-[(4S)-4-Carboxy-4-octadecanoylamino-butyrylamino]-ethoxy}-ethoxy)-acetylamino]-ethoxy}-ethoxy)-acetyl; Aib at 27; C-terminal amide
B3: SEQ ID NO: 15 (peptide)
peptide: HXQGTFTSDLSKQKDEEAARLFIEWLXSGGPSSGAPPPS
modifications: D-Ser at 2; Lys 14 side chain K(γE-γE-x53) = (S)-4-Carboxy-4-((S)-4-carboxy-4-hexadecanoylamino-butyrylamino)-butyryl-; Aib at 27; C-terminal amide
B4: SEQ ID NO: 24 (peptide)
peptide: HXQGTFTSDLSKQKDEEAARLFIEWLXKXGPSSGAPPPS
modifications: D-Ser at 2; Lys 14 side chain K(γE-γE-x53) = (S)-4-Carboxy-4-((S)-4-carboxy-4-hexadecanoylamino-butyrylamino)-butyryl-; Aib at 27; D-Ala at 29; C-terminal amide
B5: SEQ ID NO: 25 (peptide)
peptide: HXQGTFTSDLSKQKDEEAARLFIEWLXKXGPSSGAPPPS
modifications: D-Ser at 2; Lys 14 side chain K(γE-x70) = (S)-4-Carboxy-4-octadecanoylamino-butyryl-; Aib at 27; D-Ala at 29; C-terminal amide
B6: SEQ ID NO: 22 (peptide)
peptide: HXQGTFTSDLSKQKDEEAARLFIEWLXAGGPSSGAPPPS
modifications: D-Ser at 2; Lys 14 side chain K(AEEAc-AEEAc-AEEAc-x70) = [2-(2-{2-[2-(2-{2-[2-(2-Octadecanoylamino-ethoxy)-ethoxy]-acetylamino}-ethoxy)-ethoxy]-acetylamino}-ethoxy)-ethoxy]-acetyl-; Aib at 27; C-terminal amide
B7: SEQ ID NO: 20 (peptide)
peptide: HXQGTFTSDLSKQKDEEAARLFIEWLXAGGPSSGAPPPS
modifications: D-Ser at 2; Lys 14 side chain K(AEEAc-AEEAc- E-x53) = (2-{2-[2-(2-{2-[(4S)-4-Carboxy-4-hexadecanoylamino-butyrylamino]-ethoxy}-ethoxy)-acetylamino]-ethoxy}-ethoxy)-acetyl; Aib at 27; C-terminal amide
B8: SEQ ID NO: 18 (peptide)
peptide: HXQGTFTSDLSKQKDEEAARLFIEWLXSTGPSSGAPPPS
modifications: D-Ser at 2; Lys 14 side chain K(γE-γE-x53) = (S)-4-Carboxy-4-((S)-4-carboxy-4-hexadecanoylamino-butyrylamino)-butyryl-; Aib at 27; C-terminal amide
B9: SEQ ID NO: 19 (peptide)
peptide: HXQGTFTSDLSKQKDEEAARLFIEWLXKGGPSSGAPPPS
modifications: D-Ser at 2; Lys 14 side chain K(γE-γE-x53) = (S)-4-Carboxy-4-((S)-4-carboxy-4-hexadecanoylamino-butyrylamino)-butyryl-; Aib at 27; C-terminal amide
B10: SEQ ID NO: 17 (peptide)
peptide: H[dS]QGTFTSDLSKQK([γGlu-γGlu-Palmitoyl])DEEAVRLFIEWL[Aib]AGGPSSGAPPPS-NH2
modifications: N-terminus assumed
SMILES: CCCCCCCCCCCCCCCC(=O)N[C@@H](CCC(=O)N[C@@H](CCC(=O)NCCCC[C@H](NC(=O)[C@H](CCC(N)=O)NC(=O)[C@H](CCCCN)NC(=O)[C@H](CO)NC(=O)[C@H](CC(C)C)NC(=O)[C@H](CC(=O)O)NC(=O)[C@H](CO)NC(=O)[C@@H](NC(=O)[C@H](Cc1ccccc1)NC(=O)[C@@H](NC(=O)CNC(=O)[C@H](CCC(N)=O)NC(=O)[C@@H](CO)NC(=O)[C@@H](N)Cc1c[nH]cn1)[C@@H](C)O)[C@@H](C)O)C(=O)N[C@@H](CC(=O)O)C(=O)N[C@@H](CCC(=O)O)C(=O)N[C@@H](CCC(=O)O)C(=O)N[C@@H](C)C(=O)N[C@H](C(=O)N[C@@H](CCCNC(=N)N)C(=O)N[C@@H](CC(C)C)C(=O)N[C@@H](Cc1ccccc1)C(=O)N[C@H](C(=O)N[C@@H](CCC(=O)O)C(=O)N[C@@H](Cc1c[nH]c2ccccc12)C(=O)N[C@@H](CC(C)C)C(=O)NC(C)(C)C(=O)N[C@@H](C)C(=O)NCC(=O)NCC(=O)N1CCC[C@H]1C(=O)N[C@@H](CO)C(=O)N[C@@H](CO)C(=O)NCC(=O)N[C@@H](C)C(=O)N1CCC[C@H]1C(=O)N1CCC[C@H]1C(=O)N1CCC[C@H]1C(=O)N[C@@H](CO)C(N)=O)[C@@H](C)CC)C(C)C)C(=O)O)C(=O)O
B11: SEQ ID NO: 10 (peptide)
peptide: H[dS]QGTFTSDLSKQK([γGlu-Stearoyl])EEEAVRLFIEWL[Aib]AGGPSSGAPPPS-NH2
modifications: N-terminus assumed
SMILES: CCCCCCCCCCCCCCCCCC(=O)N[C@@H](CCC(=O)NCCCC[C@H](NC(=O)[C@H](CCC(N)=O)NC(=O)[C@H](CCCCN)NC(=O)[C@H](CO)NC(=O)[C@H](CC(C)C)NC(=O)[C@H](CC(=O)O)NC(=O)[C@H](CO)NC(=O)[C@@H](NC(=O)[C@H](Cc1ccccc1)NC(=O)[C@@H](NC(=O)CNC(=O)[C@H](CCC(N)=O)NC(=O)[C@@H](CO)NC(=O)[C@@H](N)Cc1c[nH]cn1)[C@@H](C)O)[C@@H](C)O)C(=O)N[C@@H](CCC(=O)O)C(=O)N[C@@H](CCC(=O)O)C(=O)N[C@@H](CCC(=O)O)C(=O)N[C@@H](C)C(=O)N[C@H](C(=O)N[C@@H](CCCNC(=N)N)C(=O)N[C@@H](CC(C)C)C(=O)N[C@@H](Cc1ccccc1)C(=O)N[C@H](C(=O)N[C@@H](CCC(=O)O)C(=O)N[C@@H](Cc1c[nH]c2ccccc12)C(=O)N[C@@H](CC(C)C)C(=O)NC(C)(C)C(=O)N[C@@H](C)C(=O)NCC(=O)NCC(=O)N1CCC[C@H]1C(=O)N[C@@H](CO)C(=O)N[C@@H](CO)C(=O)NCC(=O)N[C@@H](C)C(=O)N1CCC[C@H]1C(=O)N1CCC[C@H]1C(=O)N1CCC[C@H]1C(=O)N[C@@H](CO)C(N)=O)[C@@H](C)CC)C(C)C)C(=O)O
B12: SEQ ID NO: 26 (peptide)
peptide: H[dS]HGTFTSDLSKQK([γGlu-γGlu-Palmitoyl])DEEAARLFIEWL[Aib]K[dA]GPSSGAPPPS-NH2
B13: SEQ ID NO: 8 (peptide)
peptide: H[dS]HGTFTSDLSKQK([γGlu-Stearoyl])DEEAARLFIEWL[Aib]AGGPSSGAPPPS-NH2
modifications: N-terminus assumed
SMILES: CCCCCCCCCCCCCCCCCC(=O)N[C@@H](CCC(=O)NCCCC[C@H](NC(=O)[C@H](CCC(N)=O)NC(=O)[C@H](CCCCN)NC(=O)[C@H](CO)NC(=O)[C@H](CC(C)C)NC(=O)[C@H](CC(=O)O)NC(=O)[C@H](CO)NC(=O)[C@@H](NC(=O)[C@H](Cc1ccccc1)NC(=O)[C@@H](NC(=O)CNC(=O)[C@H](Cc1c[nH]cn1)NC(=O)[C@@H](CO)NC(=O)[C@@H](N)Cc1c[nH]cn1)[C@@H](C)O)[C@@H](C)O)C(=O)N[C@@H](CC(=O)O)C(=O)N[C@@H](CCC(=O)O)C(=O)N[C@@H](CCC(=O)O)C(=O)N[C@@H](C)C(=O)N[C@@H](C)C(=O)N[C@@H](CCCNC(=N)N)C(=O)N[C@@H](CC(C)C)C(=O)N[C@@H](Cc1ccccc1)C(=O)N[C@H](C(=O)N[C@@H](CCC(=O)O)C(=O)N[C@@H](Cc1c[nH]c2ccccc12)C(=O)N[C@@H](CC(C)C)C(=O)NC(C)(C)C(=O)N[C@@H](C)C(=O)NCC(=O)NCC(=O)N1CCC[C@H]1C(=O)N[C@@H](CO)C(=O)N[C@@H](CO)C(=O)NCC(=O)N[C@@H](C)C(=O)N1CCC[C@H]1C(=O)N1CCC[C@H]1C(=O)N1CCC[C@H]1C(=O)N[C@@H](CO)C(N)=O)[C@@H](C)CC)C(=O)O

Key:
Assay in all cases: cell-based or functional assay
[1] = target: T1, human GIP receptor
[2] = target: human GLP-1 receptor (human, UniProt P43220 24-463)
[3] = target: human glucagon receptor (human, UniProt P47871 26-477)
human glucagon receptor, sequence (P47871 26-477): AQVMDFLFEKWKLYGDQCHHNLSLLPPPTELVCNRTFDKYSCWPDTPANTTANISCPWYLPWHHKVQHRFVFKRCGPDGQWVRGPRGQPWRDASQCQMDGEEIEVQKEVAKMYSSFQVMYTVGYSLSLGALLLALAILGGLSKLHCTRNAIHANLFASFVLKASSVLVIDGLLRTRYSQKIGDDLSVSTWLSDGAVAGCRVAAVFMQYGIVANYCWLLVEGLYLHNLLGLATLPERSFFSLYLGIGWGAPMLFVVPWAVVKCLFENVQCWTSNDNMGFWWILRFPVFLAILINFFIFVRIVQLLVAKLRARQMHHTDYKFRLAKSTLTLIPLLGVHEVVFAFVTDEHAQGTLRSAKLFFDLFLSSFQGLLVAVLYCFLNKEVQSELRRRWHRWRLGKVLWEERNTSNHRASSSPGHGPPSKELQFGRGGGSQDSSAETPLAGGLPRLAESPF

Binder | EC50 hGIP-R [1] | EC50 hGLP-1R [2] | EC50 hGlucagon-R [3]
B1 | 0.336 nM | 0.0028 nM | 0.066 nM
B2 | 2.45 nM | 0.001 nM | 0.0091 nM
B3 | 5.5 nM | 0.0018 nM | 0.0123 nM
B4 | 14.1 nM | 0.0024 nM | 0.0765 nM
B5 | 8.32 nM | 0.0021 nM | 0.0432 nM
B6 | 4.16 nM | 0.0018 nM | 0.0064 nM
B7 | 20.2 nM | 0.0043 nM | 0.0884 nM
B8 | 27.5 nM | 0.0036 nM | 0.0103 nM
B9 | – | 0.002 nM | –
B10 | 7.08 nM | 0.0024 nM | 0.0471 nM
B11 | 0.982 nM | 0.0065 nM | 0.14 nM
B12 | 5.53 nM | 0.002 nM | 0.0406 nM
B13 | 0.538 nM | 0.0018 nM | 0.0048 nM
